# Results published in US20200199244A1 (published 2020).
# T1: Macaca fascicularis CD40 (Macaca fascicularis (cynomolgus monkey), UniProt P25942 21-277 (human entry))
# T1 chain: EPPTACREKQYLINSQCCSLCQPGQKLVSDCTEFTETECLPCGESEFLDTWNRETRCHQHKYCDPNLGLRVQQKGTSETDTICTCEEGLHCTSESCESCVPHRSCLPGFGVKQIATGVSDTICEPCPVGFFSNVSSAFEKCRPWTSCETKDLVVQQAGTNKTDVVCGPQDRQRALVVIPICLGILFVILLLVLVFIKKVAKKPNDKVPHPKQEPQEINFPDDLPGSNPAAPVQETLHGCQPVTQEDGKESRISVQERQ
# What was measured:
# [1] = biological target: human CD40 (human, UniProt P25942 21-277); assay: cell-based or functional assay
# [2] = biological target: T1, Macaca fascicularis CD40; assay: cell-based or functional assay
# [3] = biological target: T2, human CD40 expressed on stably transfected CHO-DG44 cells (human, UniProt P25942 21-277); assay: CHO-CD40 cell RBA, competition with IZ-CD40L
# T2 construct: also called CHO-CD40
# Procedure: The mixture was incubated in the absence of light for 6 hours.
# [4] = biological target: human CD40 (human, UniProt P25942 21-277); assay: cell-based or functional assay; remark: listed apart in the source
# [5] = biological target: T3, human CD40 (BMS, CY24FEB06-01) (human, UniProt P25942 21-193); assay: ELISA RBA, competition with IZ-CD40L;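 note: Neutravidin-coated 384-well plate, dAb–human CD40 complex bound for 2 h at room temperature, absorbance read at 450 nm after HCl stop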
# T3 construct: Soluble reagent of the bead and ELISA RBA; It is detected with an anti-human IgG (Fc) mAb, so it may be a CD40-Ig fusion
# Procedure: Clear walled High Bind, 384-well plates (Corning, UK) were coated with 25 μl of 1 μg/ml Neutravidin in 0.2 M carbonate-bicarbonate buffer, pH 9.4 overnight at 4° C. The following day, assay plates were washed with 0.1% (v/v) Tween PBS buffer, blocked with 1% (w/v) BSA in PBS for 1 hour at room temperature and washed again. […] Following washing of the assay plate, the dAb:human CD40 complex was incubated in the assay plate at room temperature for 2 hours with gentle agitation. […] Absorbance signal was measured using a SpectraMax® M5e plate reader (Molecular Devices) at 450 nm following neutralization with 1M HCl solution.
Binder,hIZCD40L-driven Human B Cell Proliferation EC50 [1],hIZCD40L-driven Cyno B Cell Proliferation EC50 [2],EC50 [3],further results
BMS3h-43 (other) VH: EVQLLESGGGLVQPGGSLRLSCTASGFTFNMYEMSWVRQAPGKGLEWVSGISRRGFTTYYADSVKGRFTISRDNSKNTLYLQMNSLRAEDTAVYYCAKEPITYAMRYARFDYWGQGTLVTVSS,83 nM,> 7000 nM,–,–
"BMS3h-43-5 (other, dAb, single VH) VH: EVQLLESGGGLVQPGGSLRLSCTASGFTFNTYEMSWVRQAPGKGLEWVSGIGRRGFTTYYADSVKGRFTISRDNSKNTLYLQMNSLRAEDTAVYYCAKEPITYDLRYARFDYSGQGTLVTVSS",–,–,90 nM,–
"BMS3h-43-3 (other, dAb, single VH) VH: EVQLLESGGGLVQPGGSLRLSCTASGFTFNMYEMSWVRQAPGKGLEWVSGISRRGFTTYYADSVKGRFTISRDNFKNTLYLQMNSLRAEDTAVYYCAKEPITYDMRYARFDYGGQGTLVTVSS",–,–,320 nM,–
DMS0685 BMS3h-56-258-(G4S)3-DOM7h-11-90 (bispecific antibody) EVQLLESGGGLVQPGGSLRLSCAASGFTFRDYEMWWVRQAPGKGLERVSAINPQGTRTYYADSVKGRFTISRDNSKNTLYLQMNSLRAEDTAVYYCAKLPFYFHEWGQGTLVTVSSGGGGSGGGGSGGGGSDIQMTQSPSSLSASVGDRVTITCRASRPIGTMLSWYQQKPGKAPKLLILAFSRLQSGVPSRFSGSGSGTDFTLTISNLQPEDFATYYCAQAGTHPTTFGQGTKVEIKR,–,–,–,"ICAM-1 Cell Assay EC50 (nM), 10% bovine serum [4]: 31.9 nM; ICAM-1 Cell Assay EC50 (nM), 10% human serum [4]: 62.4 nM"
BMS3h-41-3 (other) VH: EVQLLEPGGGLVQPGGSLRLSCAASGFTFTEYEMIWVRKAPGKGMEWVSSISGNGANTYYADSVKGRFTISRDNSKNMLYLQMNSLRAEDTAVYYCAKEPLRFGYWGQGTLVTVSS,12 nM,> 7000 nM,–,–
BMS3h-106 (other) VH: EVQLLESGGGLVQPGGSLRLSCAASGFTFSTYHMQWVRQAPGKGLEWVSMIDADGLGTYYADSVKGRFTISRDNSKNTLYLQMNSLRAEDTAVYYCAKPGPQFGQFDYWGQGTLVTVSS,437 nM,> 7000 nM,–,–
BMS3h-37 (other) VH: EVQLLESGGGLVQPGGSLRLSCAASGFTFEWYEMQWVRQAPGKGLEWVSAISGDGYRTYYADSVKGRFTISRDNSKNTLYLQMNSLRAEDTAVYYCAKELGYFDYWGQGTLVTVSS,3400 nM,> 7000 nM,–,–
"BMS3h-38-8 (other, dAb, single VH) VH: EVQLLESGGGLVQPGGSLRLSCAASGFTFEEEEMIWVRQAPGKGLEWISAISGSGGSTYYADSVKGRFTIHRDNSKNTLYLQMNSLRAEDTAVYYCSKEPFRFDYRGLGTLVTVSS",–,–,2800 nM,–
"BMS3h-41-10 (other, dAb, single VH) VH: EVQLLESGVGLVQPGGSLRLSCAASGFTFTEYEMIWVRKAPGKGLEWVSSISGNGANTYYADSVKGRFTISRDNSKNTLYLQMNSLRAEDTAVYYCAKEPLRFDNWGQGTLVTVSS",–,–,4300 nM,–
"BMS3h-37-11 (other, dAb, single VH) VH: EVQLLESGGGLVQPGGSLRLSCAASGFTFEWYEMQWVRKAPGKGLEWVSAISGDGYRTYYADSVKGRFTISRDNSKNTLYLQMNSLRAEDTAVYYCAKELGYFDYRGRGTLVTVSS",–,–,27 nM,–
"BMS3h-41-3 (other, dAb, single VH) VH: EVQLLEPGGGLVQPGGSLRLSCAASGFTFTEYEMIWVRKAPGKGMEWVSSISGNGANTYYADSVKGRFTISRDNSKNMLYLQMNSLRAEDTAVYYCAKEPLRFGYWGQGTLVTVSS",–,–,200 nM,–
"BMS3h-37-4 (other, dAb, single VH) VH: EVQLLESGGGLVQPGGSLRLSCAASGFTFEWYEMQWVRKAPGKGLEWVSAISGDGYRTYYADSVKGRFTISRDNSKNTLYLQMNSLRAEDTAVYYCAKELGYFDYWGRGTLVTVSS",–,–,45 nM,–
"BMS3h-37-2 (other, dAb, single VH) VH: EVQLLESGGGLVQPGGSLRLSCAASGFTFEWYEMQWVRRAPGKGLEWVSAISGDGYRTYYADSVKGRFTISRDNSKNTLYLQMNSLRAEDTAVYYCAKELGYFDYWGRGTLVTVSS",–,–,32 nM,–
"BMS3h-38-5 (other, dAb, single VH) VH: EVQLLGSGGGLVQPGGSLRLSCAASGFTFEEEEMIWVRQAPGKGLEWVSAISGSGGSTYYADSVKGRFTISRDNSKNTLYLQMNSLRAEDTAVYYCGKEPFRFDYWGQGTLVTVSS",–,–,1000 nM,–
DMS0686 BMS3h-56-258-(G4S)5-DOM7h-11-90 (bispecific antibody) EVQLLESGGGLVQPGGSLRLSCAASGFTFRDYEMWWVRQAPGKGLERVSAINPQGTRTYYADSVKGRFTISRDNSKNTLYLQMNSLRAEDTAVYYCAKLPFYFHEWGQGTLVTVSSGGGGSGGGGSGGGGSGGGGSGGGGSDIQMTQSPSSLSASVGDRVTITCRASRPIGTMLSWYQQKPGKAPKLLILAFSRLQSGVPSRFSGSGSGTDFTLTISNLQPEDFATYYCAQAGTHPTTFGQGTKVEIKR,–,–,–,"ICAM-1 Cell Assay EC50 (nM), 10% bovine serum [4]: 48.3 nM; ICAM-1 Cell Assay EC50 (nM), 10% human serum [4]: 66.6 nM"
BMS3h-107 (other) VH: EVQLLESGGGLVQPGGSLRLSCAASGFTFSGYDMQWVRQAPGKGLEWVSTISASGVFTYYADSVKGRFTTSRDNSKNTLYLQMNSLRAEDTAVYYCAKYPNRFALNNFDYWGQGTLVTVSS,> 7000 nM,> 7000 nM,–,–
BMS3h-56 (other) VH: EVQLLESGGGLVQPGGSLRLSCAASGFTFRDYEMWWVRQAPGKGLERVSAINPQGTRTYYADSVKGRFTISRDNSKNTLYLQMNSLRAEDTAVYYCAKLPFIFDYWGQGTLVTVSS,713 nM,> 7000 nM,–,–
BMS3h-56-5 (other) VH: EVQLLESGGGLVQPGGSLRLSCAASGFTFRDYEMWWVRQAPGKGLERVSAINPQGTRTYYADSVMGRFTISRDNSKNTLYLQMNSLRAEDTAVYYCAKLPFTFDDWGQGTLVTVSS,6 nM,> 7000 nM,–,–

# Now from value to binder, other results behind:
hIZCD40L-driven Human B Cell Proliferation EC50 [1],hIZCD40L-driven Cyno B Cell Proliferation EC50 [2],EC50 [3],Binder,further results
2700 nM,> 7000 nM,–,BMS3h-131 (other) VL: DIQMTQSPSSLSASVGDRVTITCRANSSILWALAWYQQKPGKAPKLLIESSSGLQSGVPSRFSGSGSGTDFTLTISSLQPEDFATYYCVQNAGWPGTFGQGTKVEIKR,–
55 nM,> 7000 nM,–,BMS3h-131-2 (other) VL: DIQMTQSPSSLSASVGDRVTITCRADSSILWALAWYQQKPGKAPKLLIESSSGLQSGVPSRFSGSGSGTDFTLTISSLQPEDFATYYCVQNAVWPGTFGQGTKVEIKR,–
–,–,7200 nM,"BMS3h-202-10 (other, dAb, single VH) VH: EVQLLESGGGLVQPGGSLRLSCAASGFTFPTAEMLWVRQAPGKGLEWVSSISASGGSTYYADSVKGRFTISRDNSKNTLYLQMNSLRAEDTAVYYCAKEPVYYVATFDYWGQGTLVTVSS",–
–,–,8300 nM,"BMS3h-202-11 (other, dAb, single VH) VH: EVQLLESGGGLVQPGGSLRLSCAASGFTFPTAEMLWVRKAPGKGLEWVSSISASGGSTYYADSVKGRFTISRDNSKNTLYLQMNSLRAEDAAVYYCAKEPVSYVATFDYWGQGTLVTVSS",–
–,–,300 nM,"BMS3h-193-15 (other, dAb, single VK) VL: DIQMTQSPSSLSASVGDRVTITCRASRTIERRLNWYQQKPGKAPKLLIYLASRLQSGVPSRFSGSGSGTDFTLTISSLQPEDFATYYCHPYESPPLTFGQGTKVEIKR",–
–,–,330 nM,"BMS3h-198-3 (other, dAb, single VH) VH: EVQLLESGGGSVQPGGSLRLSCAATGSTFAGYEMWWVRQAPGKGLERVSAISGSGGSTYYADSVKGRFTISRDDSKNTLYLQMNSLRAEDTAVYYCARDPYSYDYWGQGTLVSVSS",–
–,–,115 nM,"BMS3h-198-2 (other, dAb, single VH) VH: EVQPLESGGGLVQPGGSLRLSCAASGFTFAGYEMWWVRQAPGKGLERISAISGSGGSTYYADSVKGRFTISRDDSKNTLYLQMNSLRAEDTAVYYCARDPYSFDYWGQGTLVTVSS",–
–,–,70 nM,"BMS3h-198-1 (other, dAb, single VH) VH: EVQLLESGGGLVQPGGSLRLSCAASGSTIAGYEMWWVRQAPGKGLERVSAISGSGGSTYYADSVKGRFTISRDDSKNTLYLQMNSLRAEDTAVYYCARDPYSFDYWGQGTLVTVSS",EC50 [5]: 12 nM
360 nM,> 7000 nM,–,BMS3h-197 (other) VH: EVQLLESGGGLVQPGGSLRLSCAASGFTFGSAAMDWVRQAPGKGLEWVSSINDMGSNTYYADSVKGRFTISRDNSKNTLYLQMNSLRAEDTAVYYCAKQGGRFDYWGQGTLVTVSS,–
